Reference: patent US20250382371A1 (NATIONAL INSTITUTES OF BIOMEDICAL INNOVATION HEALTH AND …, published 2025)

T1: human FCRL1 (NCBI accession number: NP_443170.1), transiently expressed on 293T cells (human, UniProt Q96LA6 17-429)
T1 construct: also called Fc receptor-like protein 1; CD307a
T1 sequence: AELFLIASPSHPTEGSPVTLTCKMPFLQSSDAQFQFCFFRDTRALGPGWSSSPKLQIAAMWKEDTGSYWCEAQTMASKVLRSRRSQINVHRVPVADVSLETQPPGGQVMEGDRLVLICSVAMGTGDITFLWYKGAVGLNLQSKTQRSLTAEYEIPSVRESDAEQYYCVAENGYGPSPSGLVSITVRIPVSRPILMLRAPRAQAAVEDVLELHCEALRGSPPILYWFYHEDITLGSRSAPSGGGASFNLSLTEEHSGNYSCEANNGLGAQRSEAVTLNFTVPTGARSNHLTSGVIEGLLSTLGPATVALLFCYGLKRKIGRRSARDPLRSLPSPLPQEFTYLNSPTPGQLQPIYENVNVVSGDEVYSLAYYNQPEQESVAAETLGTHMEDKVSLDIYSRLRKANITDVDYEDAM

T2: cynomolgus monkey FCRL1 (XP_015310712), transiently expressed on 293T cells (cynomolgus monkey)
T2 chain: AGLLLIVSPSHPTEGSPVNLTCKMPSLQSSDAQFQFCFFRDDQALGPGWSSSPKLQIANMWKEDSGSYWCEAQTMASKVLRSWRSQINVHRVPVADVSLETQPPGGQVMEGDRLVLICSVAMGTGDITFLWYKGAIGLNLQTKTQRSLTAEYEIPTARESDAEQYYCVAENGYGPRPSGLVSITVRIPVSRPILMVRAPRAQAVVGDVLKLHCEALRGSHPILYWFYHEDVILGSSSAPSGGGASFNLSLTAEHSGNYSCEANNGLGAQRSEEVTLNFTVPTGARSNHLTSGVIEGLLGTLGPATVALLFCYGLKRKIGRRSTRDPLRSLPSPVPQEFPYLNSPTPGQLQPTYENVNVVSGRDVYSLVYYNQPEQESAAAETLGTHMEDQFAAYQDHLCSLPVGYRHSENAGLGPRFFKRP

T3: hFCRL1/FcRH1-His (manufactured by R&D Systems) (human, UniProt Q96LA6 17-307)
T3 construct: Bought His-tagged recombinant human FCRL1; The protein in the assay is soluble and is probably only the extracellular part; not shown: His tag
T3 sequence: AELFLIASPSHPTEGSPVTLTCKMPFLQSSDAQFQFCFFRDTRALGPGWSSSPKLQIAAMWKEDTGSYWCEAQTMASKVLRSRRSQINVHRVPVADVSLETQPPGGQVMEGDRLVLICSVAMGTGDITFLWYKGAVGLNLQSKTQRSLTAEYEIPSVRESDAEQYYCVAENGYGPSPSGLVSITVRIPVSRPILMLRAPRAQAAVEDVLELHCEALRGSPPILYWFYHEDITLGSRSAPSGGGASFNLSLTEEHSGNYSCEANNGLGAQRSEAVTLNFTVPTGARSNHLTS


Experiments:
[1] = target: T1, human FCRL1 (NCBI accession number: …); assay: flow cytometry on 293T cells transiently expressing human FCRL1; apparent KD from EC50 of a 4-parameter fit
Method: (§1) An antigen-specific reactivity of the novel anti-human FCRL1 mouse antibody obtained in Example 4 was evaluated by Flow Cytometry (FCM). FCRL1 antigen-expressing cells were prepared by transiently expressing the recombinant FCRL1 antigen on 293T cells. A codon-optimized cDNA was synthesized based on the amino acid sequence of human FCRL1 (NCBI accession number: NP_443170.1) or cynomolgus monkey FCRL1 (XP_015310712), and a fragment in which the sequence of an internal ribosome entry site (IRES) derived from the encephalomyocarditis virus (EMCV) and the sequence of TagBFP were arranged in tandem was cloned into pcDNA 3.1hygro to construct an expression plasmid vector for human FCRL1 or cynomolgus monkey FCRL1. The purified expression vector was transfected into 293T cells, cells were collected 2 days after transfection, and binding with each antibody was confirmed by FCM.
(§2) As the secondary antibody, when the sample is a mouse antibody, R-Phycoerythrin (PE) F(ab′)₂ Fragment Goat Anti-Mouse IgG (H+L) (Jackson ImmunoResearch) was used, and when the sample is a human antibody or a human chimeric antibody, R-Phycoerythrin (PE) F(ab′)₂ Fragment Goat Anti-Human IgG, Fcγ Fragment Specific (Jackson ImmunoResearch) was used. A solution of each secondary antibody was prepared by diluting the stock solution 200 times with an FCM buffer. After washing once, cells in each well were suspended with 100 μL of FCM buffer, and binding to each antibody was confirmed by flow cytometry (FCM).
(§3) Cells that transiently expressed human FCRL1 or cynomolgus monkey FCRL1 were reacted with a 3-fold dilution series of each antibody starting from 100 nM (15 μg/ml) at 12 points. Data obtained by the FCM was analyzed, and a binding amount of each antibody bound to the cell was calculated as a fluorescence amount MFI derived from the PE-labeled secondary antibody. An antibody concentration and the measured MFI were plotted with respect to a logarithm of the antibody concentration, a saturated binding curve of each antibody was obtained, and regression was performed by a 4-parameter logistic model.

[2] = target: T2, cynomolgus monkey FCRL1 (XP_015310712), …; assay: flow cytometry on 293T cells transiently expressing cynomolgus monkey FCRL1; apparent KD from EC50 of a 4-parameter fit
Method: as §1, §2, §3

[3] = target: T3, hFCRL1/FcRH1-His (manufactured by R&D …); assay: SPR (Biacore 8K+), antibody captured by anti-human IgG, hFCRL1/FcRH1-His as analyte; 1:1 Binding model
Method: For the purpose of comparing the binding activity of the DK681 chimeric antibody (chDK681) and the DK1142 chimeric antibody (chDK1142) obtained by connecting […] of the DK681 and DK1142 mouse antibodies obtained in Example 4 to a human IgG1 (S239C) constant region with the binding activity of the anti-FCRL1 humanized antibody obtained in Example 10 to human FCRL1, the binding activity to hFCRL1/FcRH1-His (manufactured by R&D Systems) was measured by a surface plasmon resonance method (SPR method) using Biacore8K+ (manufactured by Cytiva).
The binding activity of the anti-FCRL1 antibody was measured as follows. An anti-human IgG antibody was immobilized on a CM5 sensor chip (manufactured by Cytiva) in accordance with the attached protocol using a Human Antibody Capture Kit (manufactured by Cytiva). An anti-FCRL1 antibody prepared at 5 μg/mL was added to a flow cell on which the Anti-human IgG antibody was immobilized at a flow rate of 10 μL/min for 30 seconds.
Next, hFCRL1/FcRH1-His, which is prepared stepwise to 5 concentrations by 3-fold dilution from 10000 ng/ml, was monitored at a flow rate of 30 μL/min for a binding reaction for 180 seconds and a dissociation reaction for 400 seconds. For the obtained sensorgram, a kinetic constant of each antibody was calculated by fitting by a Steady state affinity model or a 1:1 Binding model using Bia Evaluation Software (manufactured by Cytiva). The calculated binding rate constant (ka), dissociation rate constant (kd) and dissociation constant [KD] of each antibody are shown in Table 5. The chDK681 is referred to as DK681 F01, and the chDK1142 is referred to as DK1142 F02.

Binder	Kd [1]	Kd [2]	Kd [3]	koff [3]	kon [3]
anti-human FCRL1 mouse monoclonal antibody DK1164 (antibody, V domains shown) VH: QVQLQQSGTELVRPGTSVKVSCKASGYAFTNYLIEWVKQRPGQGLEWIGVINPGSGGTDYNKKFKGKAMLTADKSSNTAYMQLSSLTSDDSAVYFCARSNSYAMDYWGQGTSVTVSS VL: DIVMSQSPSSLAVSVGEKVTVSCKSSQSLLYSGNQKNNLAWYKQKPGQSPKLLIYWASTRESGVPDRFTGSGSGTDFTLTMSSVKAEDLAVYYCQQYYSYPWTFGGGTKLEIK	2.3 nM	1.4 nM			
anti-human FCRL1 mouse monoclonal antibody DK1142 (antibody, V domains shown) VH: QVQLQQSGPELVKPGASVRISCKASGYTFTSYNIHWVKQRPGQGLEWIGWIYPGDGNPKYNEKFKGKTTLTADKSSSTAYMQLSSLTSEDSAVYFCARRIHYYDYFDYWGQGTTLTVSS VL: DVLMTQTPLSLPVSLGDQASISCRSSQSIVHSNGNTYLEWYLQKPGQSPKLLIYKVSNRFSGVPDRFSGSGSGTDFTLKISRVEADDLGVYYCFQGSHVPWTFGGGTKLEIK	1.4 nM	1.1 nM			
DK1142 chimeric antibody (chDK1142), human IgG1 (S239C) (antibody, also called DK1142 F02; not shown: human kappa light chain constant region (pFUSE2-CLIg-hk vector)) heavy: not shown light: DVLMTQTPLSLPVSLGDQASISCRSSQSIVHSNGNTYLEWYLQKPGQSPKLLIYKVSNRFSGVPDRFSGSGSGTDFTLKISRVEADDLGVYYCFQGSHVPWTFGGGTKLEIK			11.4 nM	0.0518 s⁻¹	4.55e+06 M⁻¹ s⁻¹

Further binders by falling Kd [1], results first:

Kd [1]	Kd [2]	Kd [3]	koff [3]	kon [3]	Binder
1.6 nM	0.8 nM				anti-human FCRL1 mouse monoclonal antibody DK1141 (antibody, V domains shown) VH: EVRLVESGGRLVQPKGSLRLSCAVSGFTFNTYAMYWIRQAPGKGLEWVARIRSKTNNFATYYADSVKDRFTISRDDSQSMLYLQMNNLKTEDTAMYYCVRDNSGSFDYWGQGTTLTVSS VL: DIVMAQSPSSLAVSVGEKVTMSCKSSQSLLHSSNQKNYLAWYQQKPGQSPNLLIYWASSRESGVPDRFTGSGSGTDFTLTISSVQAEDLATYYCQQYYSYPTFGAGTKLDLK
1.5 nM	1 nM				anti-human FCRL1 mouse monoclonal antibody DK1166 (antibody, V domains shown) VH: QVQLQQSGPELVKPGASVRISCKASGYTFTSYNIHWVKQRPGQGLEWIGWIYPGDGNTKYNEKFKGKTTLTADKSSSTAYMQLSSLTSEDSAVYFCARRIHYFDYFDYWGQGTTLTLSS VL: DVLMTQTPLSLPVSLGDQVSISCRSGQTIVHSNGNTYLEWYLQKPGQSPKLLIYKVSNRFSGVPDRFSGSGSGTDFTLRISRVEAEDLGVYYCFQGSHVPWTFGGGTKLEIK
1 nM	0.8 nM				anti-human FCRL1 mouse monoclonal antibody DK681 (antibody, V domains shown) VH: QVQLQQPGAELVKPGTSVKLSCKASGYTFTRYWMHWVKQRPGQGLEWIGRIDPNSGGSKYNEKFKSKATLTVDKTSSSAYMQLNSLTSEDSAVYYCTRVNSGAMDYWGQGTSVTVSS VL: DIVMSQSPSSLAVSVGEKVTMSCKSSQSLLYSSNQKNYLAWYQQKPGQSPKLLIYWASTRESGVPDRFTGSGSGTDFTLTISSVKAEDLAIYYCQQYSNYPTFGSGTKLEIK
